One molecule from PMC8633019 (2021) can be followed below.

The assay deals with SM α-actin (Homo sapiens, UniProt P62736). As to the kind of experiment: TIRF microscopy polymerization assay.

B1: MRTF-A (protein)
chain: MPPLKSPAAFHEQRRSLERARTEDYLKRKIRSRPERSELVRMHILEETSAEPSLQAKQLKLKRARLADDLNEKIAQRPGPMELVEKNILPVESSLKEAIIVGQVNYPKVADSSSFDEDSSDALSPEQPASHESQGSVPSPLEARVSEPLLSATSASPTQVVSQLPMGRDSREMLFLAEQPPLPPPPLLPPSLTNGTTIPTAKSTPTLIKQSQPKSASEKSQRSKKAKELKPKVKKLKYHQYIPPDQKQDRGAPPMDSSYAKILQQQQLFLQLQILNQQQQQHHNYQAILPAPPKSAGEALGSSGTPPVRSLSTTNSSSSSGAPGPCGLARQNSTSLTGKPGALPANLDDMKVAELKQELKLRSLPVSGTKTELIERLRAYQDQISPVPGAPKAPAATSILHKAGEVVVAFPAARLSTGPALVAAGLAPAEVVVATVASSGVVKFGSTGSTPPVSPTPSERSLLSTGDENSTPGDTFGEMVTSPLTQLTLQASPLQILVKEEGPRAGSCCLSPGGRAELEGRDKDQMLQEKDKQIEALTRMLRQKQQLVERLKLQLEQEKRAQQPAPAPAPLGTPVKQENSFSSCQLSQQPLGPAHPFNPSLAAPATNHIDPCAVAPGPPSVVVKQEALQPEPEPVPAPQLLLGPQGPSLIKGVAPPTLITDSTGTHLVLTVTNKNADSPGLSSGSPQQPSSQPGSPAPAPSAQMDLEHPLQPLFGTPTSLLKKEPPGYEEAMSQQPKQQENGSSSQQMDDLFDILIQSGEISADFKEPPSLPGKEKPSPKTVCGSPLAAQPSPSAELPQAAPPPPGSPSLPGRLEDFLESSTGLPLLTSGHDGPEPLSLIDDLHSQMLSSTAILDHPPSPMDTSELHFVPEPSSTMGLDLADGHLDSMDWLELSSGGPVLSLAPLSTTAPSLFSTDFLDGHDLQLHWDSCL
As for B1, the Kd worked out at 3.3 µM.
